Test results taken from paper PMC9949068 (bioRxiv, 2023).

Legend:
cryo-EM structure = target: the molecule itself; experiment: cryo-EM structure
negative stain EM = target: the molecule itself; experiment: negative stain EM

Protein | binding result (cryo-EM structure) | binding result (negative stain EM)
human GLS2 (K253A), residues 38-602 (enzyme) HHLSEAAAQGRETPHSHQPQHQDHDSSESGMLSRLGDLLFYTIAEGQERIPIHKFTTALKATGLQTSDPRLRDCMSEMHRVVQESSSGGLLDRDLFRKCVSSNIVLLTQAFRKKFVIPDFEEFTGHVDRIFEDVKELTGGKVAAYIPQLAKSNPDLWGVSLCTVDGQRHSVGHTKIPFCLQSCVKPLTYAISISTLGTDYVHKFVGKEPSGLRYNALSLNEEGIPHNPMVNAGAIVVSSLIKMDCNKAEKFDFVLQYLNKMAGNEYMGFSNATFQSEKETGDRNYAIGYYLKEKKCFPKGVDMMAALDLYFQLCSVEVTCESGSVMAATLANGGICPITGESVLSAEAVRNTLSLMHSCGMYDFSGQFAFHVGLPAKSAVSGAILLVVPNVMGMMCLSPPLDKLGNSHRGTSFCQKLVSLFNFHNYDNLRHCARKLDPRREGAEIRNKTVVNLLFAAYSGDVSALRRFALSAMDMEQKDYDSRTALHVAAAEGHIEVVKFLIEACKVNPFAKDRWGNIPLDDAVQFNHLEVVKLLQDYQDSYTLSETQAEAAAEALSKENLESMV | binds | –
human GLS2 (N308A), residues 38-602 (enzyme) HHLSEAAAQGRETPHSHQPQHQDHDSSESGMLSRLGDLLFYTIAEGQERIPIHKFTTALKATGLQTSDPRLRDCMSEMHRVVQESSSGGLLDRDLFRKCVSSNIVLLTQAFRKKFVIPDFEEFTGHVDRIFEDVKELTGGKVAAYIPQLAKSNPDLWGVSLCTVDGQRHSVGHTKIPFCLQSCVKPLTYAISISTLGTDYVHKFVGKEPSGLRYNKLSLNEEGIPHNPMVNAGAIVVSSLIKMDCNKAEKFDFVLQYLNKMAGNEYMGFSAATFQSEKETGDRNYAIGYYLKEKKCFPKGVDMMAALDLYFQLCSVEVTCESGSVMAATLANGGICPITGESVLSAEAVRNTLSLMHSCGMYDFSGQFAFHVGLPAKSAVSGAILLVVPNVMGMMCLSPPLDKLGNSHRGTSFCQKLVSLFNFHNYDNLRHCARKLDPRREGAEIRNKTVVNLLFAAYSGDVSALRRFALSAMDMEQKDYDSRTALHVAAAEGHIEVVKFLIEACKVNPFAKDRWGNIPLDDAVQFNHLEVVKLLQDYQDSYTLSETQAEAAAEALSKENLESMV | – | binds
